{"source": "paper PMC12525494", "key": {"[1]": {"biological_target": "ST2 receptor on Raw 264.7 cells (mouse (endogenous in Raw 264.7)) (UniProt P14719)", "sequence (P14719 27-567)": "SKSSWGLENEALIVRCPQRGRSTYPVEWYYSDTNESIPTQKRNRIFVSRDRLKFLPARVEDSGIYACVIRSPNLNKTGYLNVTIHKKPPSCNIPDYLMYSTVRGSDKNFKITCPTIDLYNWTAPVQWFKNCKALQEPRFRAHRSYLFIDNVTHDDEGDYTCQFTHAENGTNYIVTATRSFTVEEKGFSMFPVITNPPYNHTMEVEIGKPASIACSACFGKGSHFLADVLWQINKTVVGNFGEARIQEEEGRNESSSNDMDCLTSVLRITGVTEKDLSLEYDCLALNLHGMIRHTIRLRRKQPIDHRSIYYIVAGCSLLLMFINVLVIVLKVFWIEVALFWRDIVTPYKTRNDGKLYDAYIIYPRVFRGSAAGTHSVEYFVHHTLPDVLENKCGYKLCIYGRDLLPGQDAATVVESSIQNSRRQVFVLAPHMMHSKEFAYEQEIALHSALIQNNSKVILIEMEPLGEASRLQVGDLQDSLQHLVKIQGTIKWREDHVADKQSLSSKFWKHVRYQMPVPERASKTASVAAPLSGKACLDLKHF"}, "[2]": {"biological_target": "ST2 receptor on Raw 264.7 cells (mouse (endogenous in Raw 264.7)) (UniProt P14719)", "remark": "listed apart in the source"}}, "data": [{"substance": "immunotoxin IL-33αS (murine IL-33 fused to the ribotoxin α-sarcin) (from UniProt P00655 28-177)", "values": [{"measurement": "Viability (%) on Raw 264.7 cell line, 1 µM protein, 72 h", "setting": "[1]", "value": 40, "unit": "%"}, {"measurement": "MTT viability of Raw 264.7 cells, IC50 at 72 h", "setting": "[2]", "value": 300, "unit": "nM"}]}]}
